Measurements from article PMC11022716.

How the values were obtained:
[1] = target: rc.73-DD (mouse); test: SPR; BIAcore 8K, 25 °C, HBS-EP+; antibodies with mIgG-Fc captured on a CM5 chip with immobilised anti-mouse antibodies; FcγRs injected at 400 to 3.125 nM (1:2 dilutions), 30 µL/min, 90 s association, 120 s dissociation; 1:1 Langmuir model
[2] = target: rc.hu1-23 (mouse); test: as above
[3] = target: 73‐DY (human); test: SPR; BIAcore 8K, 25 °C, HBS‐EP+ buffer; antibodies with hIgG‐Fc immobilised on a Series S Protein A sensor chip at 300 RU; recombinant mouse FcγRs injected at 400 to 3.125 nM, 30 µL/min, 90 s association, 120 s dissociation; 1:1 Langmuir binding model
[4] = target: hu1‐23 (human); test: as above
[5] = target: 73 (human); test: as above
Chain of 73 (human) (heavy, as listed by the source, chain 1 of 2): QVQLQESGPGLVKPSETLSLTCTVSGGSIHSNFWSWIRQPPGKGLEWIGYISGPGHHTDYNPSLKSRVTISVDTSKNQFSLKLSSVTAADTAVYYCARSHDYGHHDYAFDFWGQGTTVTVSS
Chain of 73 (human) (light, as listed by the source, chain 2 of 2): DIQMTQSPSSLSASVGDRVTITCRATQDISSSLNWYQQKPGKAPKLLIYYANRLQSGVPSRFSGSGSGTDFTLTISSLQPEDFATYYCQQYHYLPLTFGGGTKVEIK

Chain of hu1‐23 (human) (heavy, as listed by the source, chain 1 of 2): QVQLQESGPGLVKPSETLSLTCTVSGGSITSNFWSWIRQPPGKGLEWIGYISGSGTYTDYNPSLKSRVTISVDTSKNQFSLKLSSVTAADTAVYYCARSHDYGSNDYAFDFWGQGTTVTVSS
Chain of hu1‐23 (human) (light, as listed by the source, chain 2 of 2): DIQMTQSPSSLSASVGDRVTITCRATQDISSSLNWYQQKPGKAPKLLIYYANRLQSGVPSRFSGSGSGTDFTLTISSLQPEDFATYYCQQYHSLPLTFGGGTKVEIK

Binder | Kd [1] [µM] | Kd [2] [µM] | Kd [3] [µM] | Kd [4] [µM] | Kd [5] [µM]
mouse FcγRIII (receptor) ALPKAVVKLDPPWIQVLKEDMVTLMCEGTHNPGNSSTQWFHNGRSIRSQVQASYTFKATVNDSGEYRCQMEQTRLSDPVDLGVISDWLLLQTPQRVFLEGETITLRCHSWRNKLLNRISFFHNEKSVRYHHYKSNFSIPKANHSHSGDYYCKGSLGSTQHQSKPVTITVQDPATTSSISLVWYHT | 0.0118 | 2.68 | 0.012 | 0.233 | 
mouse FcγRII (receptor) THDLPKAVVKLEPPWIQVLKEDTVTLTCEGTHNPGNSSTQWFHNGRSIRSQVQASYTFKATVNDSGEYRCQMEQTRLSDPVDLGVISDWLLLQTPQLVFLEGETITLRCHSWRNKLLNRISFFHNEKSVRYHHYSSNFSIPKANHSHSGDYYCKGSLGRTLHQSKPVTITVQGPKSSRSLP | 0.00297 | 0.196 | 0.00972 | 0.3 | 0.379
mouse FcγRI (receptor) EVVNATKAVITLQPPWVSIFQKENVTLWCEGPHLPGDSSTQWFINGTAVQISTPSYSIPEASFQDSGEYRCQIGSSMPSDPVQLQIHNDWLLLQASRRVLTEGEPLALRCHGWKNKLVYNVVFYRNGKSFQFSSDSEVAILKTNLSHSGIYHCSGTGRHRYTSAGVSITVKELFTTPVLRASVSSPFPEGSLVTLNCETNLLLQRPGLQLHFSFYVGSKILEYRNTSSEYHIARAEREDAGFYWCEVATEDSSVLKRSPELELQVLGPQSSAP |  |  | 0.0111 | 0.0541 | 0.0452
mouse FcγRIV (receptor) GLQKAVVNLDPKWVRVLEEDSVTLRCQGTFSPEDNSIKWFHNESLIPHQDANYVIQSARVKDSGMYRCQTALSTISDPVQLEVHMGWLLLQTTKWLFQEGDPIHLRCHSWQNRPVRKVTYLQNGKGKKYFHENSELLIPKATHNDSGSYFCRGLIGHNNKSSASFRISLGDPGSPSMFPPWHQ |  |  | 0.0543 | 0.0418 | 0.0426
